This passage reports EC50 (read off the curve) results from US20120315277A1, “Compositions and Methods for the Therapy and Diagnosis of Influenza” (priority 2011, published 2012).

The test concerns the target M2 protein of influenza A/Puerto Rico/8/34 (H1N1) on cells (influenza A virus A/Puerto Rico/8/34 (H1N1)) (UniProt P06821). As to the kind of experiment: FACS, MDCK cells infected with A/Puerto Rico/8/34. (In general: A flow cytometer gives signals particle by particle.)

As usually defined, the EC50 (read off the curve) is the concentration that produces a half-maximal response. A high value points to lower potency in that assay.

Sequence of M2 protein of influenza A/Puerto Rico/8/34 (H1N1) on cells (influenza A virus A/Puerto Rico/8/34 (H1N1)) (P06821 whole entry): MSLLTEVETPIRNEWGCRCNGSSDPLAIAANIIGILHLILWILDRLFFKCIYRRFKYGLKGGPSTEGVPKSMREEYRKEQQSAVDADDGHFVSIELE

“14C2 (chimeric mouse V-region/human IgG1 kappa 14C2 antibody)” had an EC50 (read off the curve) of 0.3 µg/mL.
